{"source": "patent CN101724074A", "about": "(SUZHOU IND PARK CHENJIAN ANTIB, dated 2010)", "binders": {"B1": {"name": "抗ATP5B人鼠嵌合抗体c7A8 (antibody, human IgG1, kappa, V domains shown)", "VH": "EVQLLESGAELVKPGASVKLSCTASGFNIKDAYMYWVRQRPEQGLEWIGRIDPANDNTKYDPKFQGRATITADTSSNTAYLQLSSLTSEDTAVHYCARFYSVYAMDYWGQGTSVTVSS", "VL": "TQSPAIMSASPGEKVTITCSASSSVSYMHWFQQQPGTSPKLWVYTTSNLAFGVPARFSGSGPGTSYSLTISRMEAEDAATYYCQQRSSYPLTFGAGTKLELTR", "notes": "Chimeric IgG1/kappa: signal peptide and variable region of m7A8 joined to human IgG1 constant regions; tested as culture supernatant of transfected CHO-DG44 clone E1; also called 血管抑素受体β亚基人源化嵌合抗体; 人源化嵌合抗体"}}, "target": "T1, 重组人ATP5B (rhATP5B) (human, UniProt P06576 48-529)", "T1 construct": "mature; Mr about 55 000; also called rhATP5B蛋白; rhATP5B抗原; not shown: His-tag and vector-derived residues of pET28a(+) (insert cloned SacI/HindIII)", "T1 sequence (P06576 48-529)": "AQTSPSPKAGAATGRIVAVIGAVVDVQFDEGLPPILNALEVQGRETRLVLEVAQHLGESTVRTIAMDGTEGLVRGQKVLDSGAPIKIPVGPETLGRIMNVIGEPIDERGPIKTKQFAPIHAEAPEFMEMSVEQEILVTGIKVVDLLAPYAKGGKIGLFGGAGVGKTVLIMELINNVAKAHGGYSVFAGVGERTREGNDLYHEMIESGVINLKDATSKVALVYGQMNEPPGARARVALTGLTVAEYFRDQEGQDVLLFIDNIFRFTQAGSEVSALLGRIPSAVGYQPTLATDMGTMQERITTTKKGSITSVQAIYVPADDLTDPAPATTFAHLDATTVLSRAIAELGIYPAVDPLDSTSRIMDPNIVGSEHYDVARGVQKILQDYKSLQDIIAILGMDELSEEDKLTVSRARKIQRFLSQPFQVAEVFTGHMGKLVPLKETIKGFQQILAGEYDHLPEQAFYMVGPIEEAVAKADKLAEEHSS", "test": "ELISA on culture supernatant of CHO-DG44 transfectants", "data": [{"binder": "B1", "values": [{"measurement": "binding result", "result": "binds"}]}]}
